Assay [1] has as its target T1, soluble αVβ6 headpiece, disulfide-linked (αV headpiece residues 1-594 with M400C); β6 headpiece residues 1-474 … (UniProt P06756 31-624; P18564 18-491, Interchain disulfide between αV Cys-400 and β6 Cys-270.).
T1 alpha: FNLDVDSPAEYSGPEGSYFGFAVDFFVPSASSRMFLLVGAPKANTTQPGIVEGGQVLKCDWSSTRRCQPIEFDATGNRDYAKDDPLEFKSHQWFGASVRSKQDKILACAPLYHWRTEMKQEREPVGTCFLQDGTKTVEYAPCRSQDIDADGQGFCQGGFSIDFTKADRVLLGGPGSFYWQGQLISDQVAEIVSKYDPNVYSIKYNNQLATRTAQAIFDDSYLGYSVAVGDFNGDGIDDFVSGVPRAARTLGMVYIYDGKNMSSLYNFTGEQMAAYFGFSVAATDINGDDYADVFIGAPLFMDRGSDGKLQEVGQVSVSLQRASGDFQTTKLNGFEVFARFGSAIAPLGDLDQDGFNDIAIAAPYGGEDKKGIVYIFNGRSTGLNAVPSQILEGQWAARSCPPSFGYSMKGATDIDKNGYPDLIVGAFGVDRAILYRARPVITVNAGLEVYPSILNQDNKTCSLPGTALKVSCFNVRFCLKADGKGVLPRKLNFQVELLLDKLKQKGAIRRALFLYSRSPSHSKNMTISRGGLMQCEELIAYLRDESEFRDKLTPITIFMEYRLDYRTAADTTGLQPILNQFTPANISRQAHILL
T1 beta: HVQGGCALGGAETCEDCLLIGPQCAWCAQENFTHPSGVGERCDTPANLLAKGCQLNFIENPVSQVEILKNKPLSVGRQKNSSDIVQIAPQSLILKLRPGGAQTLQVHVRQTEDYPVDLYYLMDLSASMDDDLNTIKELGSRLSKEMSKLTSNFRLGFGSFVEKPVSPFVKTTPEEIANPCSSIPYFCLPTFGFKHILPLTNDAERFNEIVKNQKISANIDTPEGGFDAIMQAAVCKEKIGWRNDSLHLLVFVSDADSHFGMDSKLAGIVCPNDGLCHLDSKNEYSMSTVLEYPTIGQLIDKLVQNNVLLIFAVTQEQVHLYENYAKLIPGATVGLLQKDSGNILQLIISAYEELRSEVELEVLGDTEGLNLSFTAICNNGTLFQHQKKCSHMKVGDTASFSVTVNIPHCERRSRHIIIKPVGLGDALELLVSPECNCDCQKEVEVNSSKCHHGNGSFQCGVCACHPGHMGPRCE
As to the kind of experiment: fluorescence anisotropy competition.

The target in assay [2] is T2, soluble αVβ6 headpiece, disulfide-linked (αV headpiece residues 1-594 with M400C); β6 headpiece residues 1-474 … (human, UniProt P06756 31-624; P18564 18-491, Interchain disulfide between αV Cys-400 and β6 Cys-270.).
T2 construct: The 3C site, ACID/BASE coiled-coils, Strep-II tag and His tags were cut off with 3C protease; The two chains are linked by the introduced disulfide bond; also called modified integrin αVβ6 headpiece dimer; full headpiece
In words: fluorescence anisotropy, competition with FITC-GRGDLGRL on the αVβ6 headpiece. Here is the method: (§1) Ligands bind to the integrin headpiece, which contains the α-subunit β-propeller domain and thigh domain, and the β-subunit βI, hybrid, PSI, and EGF1 domain. […] (SEQ ID NO: 68), peptide affinity for the αVβ₆ and αVβ₃ headpiece was measured with fluorescence anisotropy.
(§2) Fluorescence anisotropy. […] Binding affinities were calculated as described in Ref. 23.

Assay [3] has as its target T2, soluble αVβ6 headpiece, …. In words: crystal structure, peptide soaked into αVβ6 headpiece crystals. As to the method: αVβ₆ headpiece crystallization, data collection and structure determination. αVβ₆ crystals in hanging drops were formed with 3 mg/ml αVβ₆ headpiece in 20 mM Tris-HCl pH 8.0, 150 mM NaCl, 1 mM CaCl₂ and 1 mM MgCl₂ buffer (1 μl) and 1 μl reservoir solution of 20% PEG 4000, 0.1 M sodium cacodylate pH 6.0, 0.2 M ammonium sulfate. Identical vol:vol mixture of the protein and crystallization buffers yields a pH of 6.5. […] Immediately prior to flash freezing in liquid N₂, crystals were dipped in reservoir solution containing 25% glycerol with or without peptide, MgCl₂, and CaCl₂ each at 0.25 mM.

The target of assay [4] is T3, soluble αVβ3 headpiece, disulfide-linked (αV headpiece residues 1-594 with M400C); β3 headpiece residues 1-472 … (UniProt P06756 31-624; P05106 27-498, Interchain disulfide between αV Cys-400 and β3 Cys-267.).
T3 alpha: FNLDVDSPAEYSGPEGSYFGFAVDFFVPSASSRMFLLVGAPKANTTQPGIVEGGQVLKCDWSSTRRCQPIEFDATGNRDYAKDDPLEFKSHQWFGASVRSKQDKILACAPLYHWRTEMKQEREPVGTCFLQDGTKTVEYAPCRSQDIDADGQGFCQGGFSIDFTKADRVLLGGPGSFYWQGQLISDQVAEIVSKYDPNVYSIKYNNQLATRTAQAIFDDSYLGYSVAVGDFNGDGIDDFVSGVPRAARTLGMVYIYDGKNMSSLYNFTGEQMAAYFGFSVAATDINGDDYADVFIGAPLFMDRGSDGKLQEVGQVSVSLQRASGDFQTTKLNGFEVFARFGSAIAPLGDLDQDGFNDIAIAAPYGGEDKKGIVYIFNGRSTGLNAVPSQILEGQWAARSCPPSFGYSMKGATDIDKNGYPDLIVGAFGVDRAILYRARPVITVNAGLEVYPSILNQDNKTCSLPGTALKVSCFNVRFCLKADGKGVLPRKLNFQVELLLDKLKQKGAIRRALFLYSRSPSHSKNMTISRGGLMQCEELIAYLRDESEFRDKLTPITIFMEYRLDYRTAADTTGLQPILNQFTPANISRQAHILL
T3 beta: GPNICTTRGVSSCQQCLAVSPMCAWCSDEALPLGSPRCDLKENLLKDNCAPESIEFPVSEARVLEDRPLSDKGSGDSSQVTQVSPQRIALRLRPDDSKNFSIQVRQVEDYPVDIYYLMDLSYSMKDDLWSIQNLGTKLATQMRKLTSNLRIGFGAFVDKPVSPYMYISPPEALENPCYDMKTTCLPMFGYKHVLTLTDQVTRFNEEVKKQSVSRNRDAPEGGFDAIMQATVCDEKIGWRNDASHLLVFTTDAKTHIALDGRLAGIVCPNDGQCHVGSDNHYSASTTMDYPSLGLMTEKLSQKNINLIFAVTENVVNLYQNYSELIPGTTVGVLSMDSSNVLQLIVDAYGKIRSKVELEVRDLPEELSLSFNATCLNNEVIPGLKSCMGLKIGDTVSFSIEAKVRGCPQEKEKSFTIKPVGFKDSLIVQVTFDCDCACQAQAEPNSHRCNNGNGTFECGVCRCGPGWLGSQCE
As to the kind of experiment: fluorescence anisotropy competition.

For assay [5], the target named is T2, soluble αVβ6 headpiece, …. In words: fluorescence anisotropy, saturation binding, Mn2+/Ca2+. Here is the method: (§3) (SEQ ID NO: 68), was synthesized. […] By competition binding assay, the affinities of different ligands were measured.
as §2
(In fluorescence polarisation assays a small probe gives low polarisation when free and higher when bound to something large.)

Assay [6] concerns the target T2, soluble αVβ6 headpiece, …. As to the kind of experiment: fluorescence anisotropy, saturation binding, 1 mM Mg2+/Ca2+. Here is the method:
as §3, §2

The target in assay [7] is T1, soluble αVβ6 headpiece, …. As to the kind of experiment: fluorescence anisotropy; pH 5.0.
In assay [8] the target is T1, soluble αVβ6 headpiece, …. As to the kind of experiment: fluorescence anisotropy; pH 6.0.
Assay [9] concerns the target T1, soluble αVβ6 headpiece, …. In words: fluorescence anisotropy; pH 7.0.
For assay [10], the target named is T1, soluble αVβ6 headpiece, …. As to the kind of experiment: fluorescence anisotropy; pH 8.0.
In assay [11] the target is T1, soluble αVβ6 headpiece, …. As to the kind of experiment: fluorescence anisotropy; pH 9.0.
Assay [12] has as its target T4, soluble αVβ3 headpiece, disulfide-linked (αV headpiece residues 1-594 with M400C); β3 headpiece residues 1-472 … (human, UniProt P06756 31-624; P05106 27-498, Interchain disulfide between αV Cys-400 and β3 Cys-267.).
T4 construct: tags and coiled-coils cut off with 3C protease
In words: fluorescence anisotropy, competition with FITC-GRGDLGRL on the αVβ3 headpiece. As to the method: as §1, §2

Ends that are not written are not given here. * marks the point of attachment. FITC = O=C1OC2(c3ccc(O)cc3Oc3cc(O)ccc32)c2ccc(NC(=S)*)cc21

One may read the Kd as the constant that tells how readily two partners part at equilibrium. High values mean lower affinity, low ones higher affinity. HGRGD had a Kd in assay [1] of 8900 nM.

HGRGDLGRL registered a Kd in assay [1] of 28.4 nM. This Kd is about 310-fold lower than that of the molecule before.

Take RRGDLATIH (also called pro-TGF-β1 peptide) [nonapeptide containing RGD from pro-TGF-β1]: the affinity in assay [2], expressed as Kd, was 10.3 nM. This lies in the double-digit nanomolar range.

B1: pro-TGF-β3 undecapeptide Ac-HGRGDLGRLKK-NH2 (peptide)
peptide: Ac-HGRGDLGRLKK-NH2
notes: also called Pro-TGF-β3 peptide; TGF-β3 peptide
In the case of B1, the binding result in [3] was “binds”. The molecule further displayed a Kd in [1] of 7.3 nM.

HGRGDL had a Kd in assay [1] of 966 nM.

Take HGRGDLG: the Kd in [1] worked out at 691 nM.

TSGDQKTIK (also called pro-TGF-β2 peptide) [homologous peptide from pro-TGF-β2, which has SGDQ in place of RGDL of pro-TGF-β1] registered a Kd in assay [4] of 4800 nM. For the same molecule, in assay [2], the Kd stood at 8500 nM; the “fold lower affinity than the pro-TGF-β1 and pro-TGF-β3 nonapeptides” value came out at 1000 fold.

Turning to HGRGDLGRLK, in assay [1], the Kd is 20.3 nM.

As to {FITC}-GRGDLGRL (also called the probe) [FITC-GRGDLGRL (FITC-pro-TGF-β3 peptide, fluorescence probe)], the Kd in assay [5] stood at 10 nM; in assay [6], 100 nM; in [7], 3810 nM; in assay [8], 2000 nM; in assay [9] it was 212 nM; in assay [10], 84.6 nM. Besides, in assay [11], the Kd came out at 27.4 nM.

The molecule HGRGDLGR yielded a Kd in assay [1] of 296 nM.

B2: nonapeptide containing RGD from pro-TGF-β3 (GRGDLGRLK) (peptide)
peptide: GRGDLGRLK
notes: also called pro-TGF-β3 peptide; TGF-β3 nonapeptide
In the case of B2, the dissociation constant (Kd) came out at 2300 nM in assay [4] and 8.5 nM in assay [2]. In addition, in assay [12], the “fold lower affinity than for αVβ6” value came to 1000 fold.

Values taken from patent US20170183390A1 (published 2017).
